Laboratory results: patent US6020130, “Nucleic acid ligands that bind to and inhibit DNA polymerases” (NeXstar Pharmaceuticals, Inc.)

What was measured:
Tth DNA polymerase [1] = molecular target: T1, Tth DNA polymerase (UniProt P52028 P52028:1-834); experiment: inhibition; room temperature; IT50 29 C; conditions: tags: rTth, 94 kDa, Roche Molecular Systems / Perkin Elmer
Protocol: (§1) Since the concentration of Taq polymerase used in the assay is 12.5 nM, enzyme inhibition by TQ30 (SEQ ID NO:50) is likely to be a result of stoichiometric binding.
(§2) In a typical inhibition assay, a 20 μL reaction contained either 0.25 pmoles of Taq polymerase (5 U) or 0.125 pmoles of Tth polymerase (2.5 U), oligonucleotide inhibitor (at varying concentrations), 10 mM Tris-HCl (pH 8.3), 50 mM KCl, 2.5 mM MgCl_2, and 1 mM each dNTPs. Gel purified, 5'-end-labeled hairpin DNA substrate (DNA-HP; 5'-[…]-3') was then added to a final concentration of 250 nM and the reaction was incubated at 30° C. for 1 hour. The reaction was stopped by adding 5 μL of 0.5 M EDTA (pH 8.0) followed by formamide gel loading buffer. Extension products were resolved on 10% polyacrylamide gels under denaturing conditions. The amount of extension products were quantitated by phosphorimager. The amounts of products formed in the presence of inhibitor was normalized to the product formed in the absence of an inhibitor to obtain the percent of product.

Taq DNA polymerase [2] = molecular target: T2, Taq DNA polymerase (UniProt P19821 P19821:1-832); experiment: inhibition; room temperature 16 h, 12.5 nM Taq; 67 nM at 30 C 1 h; IT50 37 C; conditions: tags: rTaq, 94 kDa, Roche Molecular Systems / Perkin Elmer
T2 sequence (P19821 whole entry, one chain of several): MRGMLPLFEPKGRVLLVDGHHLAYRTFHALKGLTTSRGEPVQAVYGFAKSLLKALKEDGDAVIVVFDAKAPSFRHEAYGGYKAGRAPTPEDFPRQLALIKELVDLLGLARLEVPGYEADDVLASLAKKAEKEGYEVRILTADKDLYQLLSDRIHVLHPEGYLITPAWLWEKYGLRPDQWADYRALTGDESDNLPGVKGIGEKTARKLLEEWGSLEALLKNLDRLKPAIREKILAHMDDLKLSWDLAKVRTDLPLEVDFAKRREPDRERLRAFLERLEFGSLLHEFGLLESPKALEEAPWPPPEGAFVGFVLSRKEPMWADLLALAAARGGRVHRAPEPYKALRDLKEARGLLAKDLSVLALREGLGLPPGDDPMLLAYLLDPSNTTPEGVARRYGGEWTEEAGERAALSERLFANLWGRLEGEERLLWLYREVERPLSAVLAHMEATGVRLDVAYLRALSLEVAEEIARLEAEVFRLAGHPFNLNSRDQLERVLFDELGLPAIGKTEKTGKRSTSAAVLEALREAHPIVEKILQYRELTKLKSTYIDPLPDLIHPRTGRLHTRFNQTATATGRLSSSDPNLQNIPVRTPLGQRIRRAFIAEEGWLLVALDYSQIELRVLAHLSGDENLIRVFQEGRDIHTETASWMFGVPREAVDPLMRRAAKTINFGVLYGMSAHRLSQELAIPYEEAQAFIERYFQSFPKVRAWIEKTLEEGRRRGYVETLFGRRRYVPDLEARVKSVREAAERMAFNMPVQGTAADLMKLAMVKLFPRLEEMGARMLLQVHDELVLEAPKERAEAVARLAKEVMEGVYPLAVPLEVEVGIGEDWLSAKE
Protocol: as §1, §2

Taq DNA polymerase [3] = molecular target: T2, Taq DNA polymerase; experiment: inhibition; hairpin extension assay; IT50 41 C; conditions: tags: rTaq, 94 kDa, Roche Molecular Systems / Perkin Elmer
Protocol: as §2

Tth DNA polymerase [4] = molecular target: T1, Tth DNA polymerase; experiment: inhibition; hairpin extension assay; IT50 34.5 C; conditions: tags: rTth, 94 kDa, Roche Molecular Systems / Perkin Elmer
Protocol: as §2

Taq DNA polymerase [5] = molecular target: T2, Taq DNA polymerase; experiment: inhibition; room temperature 16 h, 12.5 nM Taq; 22 nM at 30 C 1 h; IT50 41 C; conditions: tags: rTaq, 94 kDa, Roche Molecular Systems / Perkin Elmer
Protocol: as §1, §2

Tth DNA polymerase [6] = molecular target: T1, Tth DNA polymerase; experiment: inhibition; hairpin extension assay; IT50 35.6 C; conditions: tags: rTth, 94 kDa, Roche Molecular Systems / Perkin Elmer
Protocol: (§3) Deletion analysis of the full-length TQ21 sequence led to the identification of a 51-mer sequence (Trnc.21 (SEQ ID NO:70) (Table 4)) that retained the ability to inhibit both Taq and Tth polymerases. In addition to the entire 30-nucleotide random region, the Trnc.21 sequence contained 9 and 12 nucleotides from the 5' and 3' fixed regions, respectively (Table 4). […] The calculated $IT50$ values for Taq polymerase and Tth polymerase are 34° C. and 35.6° C., respectively (FIG. 13C). The hairpin extension assays were carried out between the temperatures of 35 and 50° C. for 1 hour with […] Trnc.21. Thus, based on the affinity and the values of $IC50$ and $IT50$, the truncated form of TQ21 is a better inhibitor than the full-length sequence.
as §2, with “conditions.” for “conditions. The amount of extension products were quantitated by phosphorimager. The amounts of products formed in the presence of inhibitor was normalized to the product formed in the absence of an inhibitor to obtain the percent of product.”

Taq DNA polymerase [7] = molecular target: T2, Taq DNA polymerase; experiment: inhibition; hairpin extension assay; IT50 34 C; conditions: tags: rTaq, 94 kDa, Roche Molecular Systems / Perkin Elmer
Protocol: as §3
as §2, with “conditions.” for “conditions. The amount of extension products were quantitated by phosphorimager. The amounts of products formed in the presence of inhibitor was normalized to the product formed in the absence of an inhibitor to obtain the percent of product.”

Taq DNA polymerase [8] = molecular target: T2, Taq DNA polymerase; experiment: inhibition; hairpin extension assay, monomer; conditions: tags: rTaq, 94 kDa, Roche Molecular Systems / Perkin Elmer; stem-loop
Protocol: as §2

Taq DNA polymerase [9] = molecular target: T2, Taq DNA polymerase; experiment: inhibition; hairpin extension assay; conditions: tags: rTaq, 94 kDa, Roche Molecular Systems / Perkin Elmer; stem-loop dimer
Protocol: as §2

Taq DNA polymerase [10] = molecular target: T2, Taq DNA polymerase; experiment: filter; conditions: tags: rTaq, 94 kDa, Roche Molecular Systems / Perkin Elmer; stem-loop dimer
Protocol: For isolation of DNA molecules that bind tightly to Taq polymerase and Tth polymerase, respectively, the nitrocellulose filter partitioning method was used as described in the SELEX Patent Applications. Briefly, gel-purified ^32P ss-DNA pools labeled at the 5' end were suspended in the binding buffer, heated to 80° C., chilled on ice and then brought to room temperature. The DNA (5–10 pM) was then incubated for 15 minutes at room temperature with varying amounts of the target polymerase in 50 µL of the appropriate binding buffer containing 0.1 µg of tRNA and 0.01% hSA. The DNA concentrations were kept lower than 100 pM to ensure equilibrium in the presence of excess protein concentrations. After 15 minutes the binding reaction mixtures were passed through pre-wet nitrocellulose/cellulose acetate mixed matrix filters (0.45 µm pore size, Millipore Corporation, Bedford, Mass.) and the filters were immediately washed with 5 mL of binding buffer. The amount of DNA bound to the filters was quantitated by measuring the radioactivity of the filters by liquid scintillation counting. The quantity of DNA bound to filters in the absence of protein was used for background correction. The percentage of input DNA retained on each filter was plotted against the corresponding log of the polymerase concentration (FIGS. 1 and 2). […]

T1 sequence (P52028 whole entry, one chain of several): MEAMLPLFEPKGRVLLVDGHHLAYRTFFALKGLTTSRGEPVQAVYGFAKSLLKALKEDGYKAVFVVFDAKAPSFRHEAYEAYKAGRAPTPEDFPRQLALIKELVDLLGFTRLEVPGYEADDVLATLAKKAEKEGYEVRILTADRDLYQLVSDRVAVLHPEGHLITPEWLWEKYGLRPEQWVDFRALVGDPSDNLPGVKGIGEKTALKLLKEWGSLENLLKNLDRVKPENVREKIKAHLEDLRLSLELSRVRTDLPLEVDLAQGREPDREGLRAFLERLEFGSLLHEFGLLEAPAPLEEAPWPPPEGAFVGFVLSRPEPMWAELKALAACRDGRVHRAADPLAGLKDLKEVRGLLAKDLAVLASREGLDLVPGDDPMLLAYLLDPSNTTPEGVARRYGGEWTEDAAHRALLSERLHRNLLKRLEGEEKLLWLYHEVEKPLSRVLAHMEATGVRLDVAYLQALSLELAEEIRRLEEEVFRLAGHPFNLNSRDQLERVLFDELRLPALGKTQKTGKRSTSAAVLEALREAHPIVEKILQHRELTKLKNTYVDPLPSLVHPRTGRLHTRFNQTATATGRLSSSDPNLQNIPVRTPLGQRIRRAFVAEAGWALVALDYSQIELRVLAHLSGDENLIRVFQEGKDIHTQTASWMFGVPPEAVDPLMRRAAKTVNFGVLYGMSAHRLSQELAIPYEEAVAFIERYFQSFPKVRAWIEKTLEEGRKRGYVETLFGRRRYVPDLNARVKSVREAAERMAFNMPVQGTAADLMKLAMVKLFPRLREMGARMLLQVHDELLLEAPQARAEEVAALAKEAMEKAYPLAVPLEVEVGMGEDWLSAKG

B1: TQ21 (ssDNA)
DNA: TTCTCGGTTGGTCTCTGGCGGAGCGATCATCTCAGAGCATTCTTAGCGTTTTGTTCTTGTGTATGATTCGCTTTTCCC
IC50 (Tth DNA polymerase [1]): 36 nM | IC50 (Taq DNA polymerase [2]): 10 nM

B2: D.21-D.30 heterodimer (ssDNA)
DNA: TGGCGGAGCGATCATCTCAGAGCATTCTTAGCGTTTTGTTCTTGTGTATGATTTGCCGGCCAATGTACAGTATTGGCCGGC
IC50 (Taq DNA polymerase [3]): ~30 nM | IC50 (Tth DNA polymerase [4]): ~30 nM

B3: TQ30 (ssDNA)
DNA: TTCTCGGTTGGTCTCTGGCGGAGCAAGACCAGACAATGTACAGTATTGGCCTGATCTTGTGTATGATTCGCTTTTCCC
IC50 (Taq DNA polymerase [5]): 6.5 nM | IC50 (Tth DNA polymerase [1]): 60 nM

B4: Trnc.21 (ssDNA)
DNA: TGGCGGAGCGATCATCTCAGAGCATTCTTAGCGTTTTGTTCTTGTGTATGA
IC50 (Tth DNA polymerase [6]): 36.5 nM | IC50 (Taq DNA polymerase [7]): 21 nM

GCCGGCCAATGTACAGTATTGGCCGGC (ssDNA) [Trnc.2-30]
IC50 (Taq DNA polymerase [8]): 48 nM

B5: D.30-D.30 homodimer (ssDNA)
DNA 1: GCCGGCCAATGTACAGTATTGGCCGGC
DNA 2: GCCGGCCAATGTACAGTATTGGCCGGC
modifications: two Trnc.2-30 copies joined with symmetrical 3'-3' branching CPG linker (linker region drawn in figure only)
IC50 (Taq DNA polymerase [9]): 14 nM | Kd (Taq DNA polymerase [10]): 0.0475 nM
